Tests used:
HeLa Kyoto [1] = experiment: solubility in G1/S (NP-40 vs SDS abundance) (log2 ratio); higher = more soluble; conditions: cell cycle stage: G1/S
HeLa Kyoto [2] = experiment: solubility change mitosis vs G1/S (difference of NP-40 vs SDS log2 ratios) (log2 ratio difference); higher = more soluble in mitosis
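For solubility change mitosis vs G1/S (difference of NP-40 vs SDS log2 ratios) in this document: synchronized HeLa Kyoto cells (double thymidine block for G1/S, nocodazole release for mitosis), protein amounts in NP-40 versus SDS lysates quantified by mass spectrometry, three biological replicates.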
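For solubility in G1/S (NP-40 vs SDS abundance) in this document: HeLa Kyoto cells arrested at G1/S by double thymidine block, proteins quantified by TMT10plex mass spectrometry in mild NP-40 versus SDS extracts, three biological replicates.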

| Sequence | solubility in G1/S (log2) (HeLa Kyoto [1]) | solubility change mitosis (log2) (HeLa Kyoto [2]) |
| --- | --- | --- |
| MAAGSDLLDEVFFNSEVDEKVVSDLVGSLESQLAASAAHHHHLAPRTPEVRAAAAGALGNHVVSGSPAGAAGAGPAAPAEGAPGAAPEPPPAGRARPGGGGPQRPGPPSPRRPLVPAGPAPPAAKLRPPPEGSAGSCAPVPAAAAVAAGPEPAPAGPAKPAGPAALAARAGPGPGPGPGPGPGPGPGKPAGPGAAQTLNGSAALLNSHHAAAPAVSLVNNGPAALLPLPKPAAPGTVIQTPPFVGAAAPPAPAAPSPPAAPAPAAPAAAPPPPPPAPATLARPPGHPAGPPTAAPAVPPPAAAQNGGSAGAAPAPAPAAGGPAGVSGQPGPGAAAAAPAPGVKAESPKRVVQAAPPAAQTLAASGPASTAASMVIGPTMQGALPSPAAVPPPAPGTPTGLPKGAAGAVTQSLSRTPTATTSGIRATLTPTVLAPRLPQPPQNPTNIQNFQLPPGMVLVRSENGQLLMIPQQALAQMQAQAHAQPQTTMAPRPATPTSAPPVQISTVQAPGTPIIARQVTPTTIIKQVSQAQTTVQPSATLQRSPGVQPQLVLGGAAQTASLGTATAVQTGTPQRTVPGATTTSSAATETMENVKKCKNFLSTLIKLASSGKQSTETAANVKELVQNLLDGKIEAEDFTSRLYRELNSSPQPYLVPFLKRSLPALRQLTPDSAAFIQQSQQQPPPPTSQATTALTAVVLSSSVQRTAGKTAATVTSALQPPVLSLTQPTQVGVGKQGQPTPLVIQQPPKPGALIRPPQVTLTQTPMVALRQPHNRIMLTTPQQIQLNPLQPVPVVKPAVLPGTKALSAVSAQAAAAQKNKLKEPGGGSFRDDDDINDVASMAGVNLSEESARILATNSELVGTLTRSCKDETFLLQAPLQRRILEIGKKHGITELHPDVVSYVSHATQQRLQNLVEKISETAQQKNFSYKDDDRYEQASDVRAQLKFFEQLDQIEKQRKDEQEREILMRAAKSRSRQEDPEQLRLKQKAKEMQQQELAQMRQRDANLTALAAIGPRKKRKVDCPGPGSGAEGSGPGSVVPGSSGVGTPRQFTRQRITRVNLRDLIFCLENERETSHSLLLYKAFLK [TAF4] | 0.132 | 0.0124 |
| MAALAEEQTEVAVKLEPEGPPTLLPPQAGDGAGEGSGGTTNNGPNGGGGNVAASSSTGGDGGTPKPTVAVSAAAPAGAAPVPAAAPDAGAPHDRQTLLAVLQFLRQSKLREAEEALRREAGLLEEAVAGSGAPGEVDSAGAEVTSALLSRVTASAPGPAAPDPPGTGASGATVVSGSASGPAAPGKVGSVAVEDQPDVSAVLSAYNQQGDPTMYEEYYSGLKHFIECSLDCHRAELSQLFYPLFVHMYLELVYNQHENEAKSFFEKFHGDQECYYQDDLRVLSSLTKKEHMKGNETMLDFRTSKFVLRISRDSYQLLKRHLQEKQNNQIWNIVQEHLYIDIFDGMPRSKQQIDAMVGSLAGEAKREANKSKVFFGLLKEPEIEVPLDDEDEEGENEEGKPKKKKPKKDSIGSKSKKQDPNAPPQNRIPLPELKDSDKLDKIMNMKETTKRVRLGPDCLPSICFYTFLNAYQGLTAVDVTDDSSLIAGGFADSTVRVWSVTPKKLRSVKQASDLSLIDKESDDVLERIMDEKTASELKILYGHSGPVYGASFSPDRNYLLSSSEDGTVRLWSLQTFTCLVGYKGHNYPVWDTQFSPYGYYFVSGGHDRVARLWATDHYQPLRIFAGHLADVNCTRFHPNSNYVATGSADRTVRLWDVLNGNCVRIFTGHKGPIHSLTFSPNGRFLATGATDGRVLLWDIGHGLMVGELKGHTDTVCSLRFSRDGEILASGSMDNTVRLWDAIKAFEDLETDDFTTATGHINLPENSQELLLGTYMTKSTPVVHLHFTRRNLVLAAGAYSPQ [TAF5] | -0.0963 | 0.00763 |
| MAALGHLAGEAAAAPGPGTPCASRGARLPGPVSSARNPSTVCLCPEQPTCSNADSRAHPLGDEGGTASKKQKNKKKTRNRASVANGGEKASEKLAPEEVPLSAEAQAQQLAQELAWCVEQLELGLKRQKPTPKQKEQAIGAIRTLRSKRTPLPRKRQLMHSLFGDYRAQMEAEWREALRALRAAAYSAQVQPVDGATRKKSQRVCRPRSIWRAKATLDMPDEEFRFNFF [C8ORF33] | 0.306 | 0.747 |
| MAAPRWSASGPWIRGNGQGCGSLFTLVSKPFCAAAAASTAINAQRLAEKLRAQKREQDTKKEPVSTNAVQRRVQEIVRFTRQLQRVHPNVLAKALTRGILHQDKNLVVINKPYGLPVHGGPGVQLCITDVLPILAKMLHGHKAEPLHLCHRLDKETTGVMVLAWDKDMAHQVQELFRTRQVVKKYWAITVHVPMPSAGVVDIPIVEKEAQGQQQHHKMTLSPSYRMDDGKMVKVRRSRNAQVAVTQYQVLSSTLSSALVELQPITGIKHQLRVHLSFGLDCPILGDHKYSDWNRLAPQKLSVGTLKKLGLEQSKARYIPLHLHARQLILPALGSGKEELNLVCKLPRFFVHSLHRLRLEMPNEDQNENNEAKCLGAQ [RPUSD4] | -0.22 | 0.0788 |
| MAAPTPARPVLTHLLVALFGMGSWAAVNGIWVELPVVVKELPEGWSLPSYVSVLVALGNLGLLVVTLWRRLAPGKDEQVPIRVVQVLGMVGTALLASLWHHVAPVAGQLHSVAFLALAFVLALACCASNVTFLPFLSHLPPRFLRSFFLGQGLSALLPCVLALVQGVGRLECPPAPINGTPGPPLDFLERFPASTFFWALTALLVASAAAFQGLLLLLPPPPSVPTGELGSGLQVGAPGAEEEVEESSPLQEPPSQAAGTTPGPDPKAYQLLSARSACLLGLLAATNALTNGVLPAVQSFSCLPYGRLAYHLAVVLGSAANPLACFLAMGVLCRSLAGLGGLSLLGVFCGGYLMALAVLSPCPPLVGTSAGVVLVVLSWVLCLGVFSYVKVAASSLLHGGGRPALLAAGVAIQVGSLLGAVAMFPPTSIYHVFHSRKDCADPCDS [SLC52A2] | -0.143 | 0.202 |
| MAAPVGPVKFWRPGTEGPGVSISEERQSLAENSGTTVVYNPYAALSIEQQRQKLPVFKLRNHILYLIENYQTVVIVGETGCGKSTQIPQYLAEAGWTAEGRVVGVTQPRRVAAVTVAGRVAEERGAVLGHEVGYCIRFDDCTDQLATRIKFLTDGMLVREMMVDPLLTKYSVIMLDEAHERTLYTDIAIGLLKKIQKKRGDLRLIVASATLDADKFRDFFNQNETSDPARDTCVILTVEGRTFPVDIFYLQSPVPDYIKSTVETVVKIHQTEGDGDVLAFLTGQEEVETVVSMLIEQARALARTGMKRHLRVLPMYAGLPSFEQMKVFERVSRSVRKVIVATNVAETSITISGIVYVIDCGFVKLRAYNPRTAIECLVVVPVSQASANQRAGRGGRSRSGKCYRLYTEEAFDKLPQSTVPEMQRSNLAPVILQLKALGIDNVLRFHFMSPPPAQSMVQALELLYALGGLDKDCRLTEPLGMRIAEFPLNPMFAKMLLESGNFGCSQEILSIAAMMQIQNIFVVPPNQKSHAIRVHRKFAVEEGDHLTMLNIYEAFIKHNKDSKWCQEHFLNYKGLVRAATVREQLKKLLVKFQVPRKSSEGDPDLVLRCIVSGFFANAARFHSTGAYRTIRDDHELHIHPASVLYAEKPPRWVIYNEVIQTSKYYMRDVTAIESAWLLELAPHFYQQGTHLSLKAKRAKVQDP [DHX35] | -0.538 | 0.261 |
| MAAPVLLRVSVPRWERVARYAVCAAGILLSIYAYHVEREKERDPEHRALCDLGPWVKCSAALASRWGRGFGLLGSIFGKDGVLNQPNSVFGLIFYILQLLLGMTASAVAALILMTSSIMSVVGSLYLAYILYFVLKEFCIICIVTYVLNFLLLIINYKRLVYLNEAWKRQLQPKQD [VKORC1L1] | -0.56 | -0.107 |
| MAARGRRAWLSVLLGLVLGFVLASRLVLPRASELKRAGPRRRASPEGCRSGQAAASQAGGARGDARGAQLWPPGSDPDGGPRDRNFLFVGVMTAQKYLQTRAVAAYRTWSKTIPGKVQFFSSEGSDTSVPIPVVPLRGVDDSYPPQKKSFMMLKYMHDHYLDKYEWFMRADDDVYIKGDRLENFLRSLNSSEPLFLGQTGLGTTEEMGKLALEPGENFCMGGPGVIMSREVLRRMVPHIGKCLREMYTTHEDVEVGRCVRRFAGVQCVWSYEMQQLFYENYEQNKKGYIRDLHNSKIHQAITLHPNKNPPYQYRLHSYMLSRKISELRHRTIQLHREIVLMSKYSNTEIHKEDLQLGIPPSFMRFQPRQREEILEWEFLTGKYLYSAVDGQPPRRGMDSAQREALDDIVMQVMEMINANAKTRGRIIDFKEIQYGYRRVNPMYGAEYILDLLLLYKKHKGKKMTVPVRRHAYLQQTFSKIQFVEHEELDAQELAKRINQESGSLSFLSNSLKKLVPFQLPGSKSEHKEPKDKKINILIPLSGRFDMFVRFMGNFEKTCLIPNQNVKLVVLLFNSDSNPDKAKQVELMRDYRIKYPKADMQILPVSGEFSRALALEVGSSQFNNESLLFFCDVDLVFTTEFLQRCRANTVLGQQIYFPIIFSQYDPKIVYSGKVPSDNHFAFTQKTGFWRNYGFGITCIYKGDLVRVGGFDVSIQGWGLEDVDLFNKVVQAGLKTFRSQEVGVVHVHHPVFCDPNLDPKQYKMCLGSKASTYGSTQQLAEMWLEKNDPSYSKSSNNNGSVRTA [CHSY1] | -0.388 | 0.159 |
| MAARPITLGIDLGTTSVKAALLRAAPDDPSGFAVLASCARAARAEAAVESAVAGPQGREQDVSRILQALHECLAALPRPQLRSVVGIGVSGQMHGVVFWKTGQGCEWTEGGITPVFEPRAVSHLVTWQDGRCSSEFLASLPQPKSHLSVATGFGCATIFWLLKYRPEFLKSYDAAGTIHDYVVAMLCGLPRPLMSDQNAASWGYFNTQSQSWNVETLRSSGFPVHLLPDIAEPGSVAGRTSHMWFEIPKGTQVGVALGDLQASVYSCMAQRTDAVLNISTSVQLAASMPSGFQPAQTPDPTAPVAYFPYFNRTYLGVAASLNGGNVLATFVHMLVQWMADLGLEVEESTVYSRMIQAAVQQRDTHLTITPTVLGERHLPDQLASVTRISSSDLSLGHVTRALCRGIVQNLHSMLPIQQLQEWGVERVMGSGSALSRNDVLKQEVQRAFPLPMSFGQDVDAAVGAALVMLRRHLNQKES [SHPK] | -0.0429 | -0.108 |
| MAASKKAVLGPLVGAVDQGTSSTRFLVFNSRTAELLSHHQVEIKQEFPREGWVEQDPKEILHSVYECIEKTCEKLGQLNIGISNIKAIGVSNQRETTVVWDKITGEPLYNAVVWLDLRTQSTVESLSKRIPGNNNFVKSKTGLPLSTYFSAVKLRWLLDNVRKVQKAVEEKRALFGTIDSWLIWSLTGGVNGGVHCTDVTNASRTMLFNIHSLEWDKQLCEFFGIPMEILPHVRSSSEIYGLMKAGALEGVPISGCLGDQSAALVGQMCFQIGQAKNTYGTGCFLLCNTGHKCVFSDHGLLTTVAYKLGRDKPVYYALEGSVAIAGAVIRWLRDNLGIIKTSEEIEKLAKEVGTSYGCYFVPAFSGLYAPYWEPSARGIICGLTQFTNKCHIAFAALEAVCFQTREILDAMNRDCGIPLSHLQVDGGMTSNKILMQLQADILYIPVVKPLMPETTALGAAMAAGAAEGVDVWSLEPEDLSAVTMERFEPQINAEESEIRYSTWKKAVMKSMGWVTTQSPEGGDPSVFCSLPLGFFIVSSMAMLIGARYISGIP [GK3P] | -0.0732 | -0.0298 |
| MAASLWMGDLEPYMDENFISRAFATMGETVMSVKIIRNRLTGIPAGYCFVEFADLATAEKCLHKINGKPLPGATPAKRFKLNYATYGKQPDNSPEYSLFVGDLTPDVDDGMLYEFFVKVYPSCRGGKVVLDQTGVSKGYGFVKFTDELEQKRALTECQGAVGLGSKPVRLSVAIPKASRVKPVEYSQMYSYSYNQYYQQYQNYYAQWGYDQNTGSYSYSYPQYGYTQSTMQTYEEVGDDALEDPMPQLDVTEANKEFMEQSEELYDALMDCHWQPLDTVSSEIPAMM [TRNAU1AP] | 0.0945 | -0.0623 |
